Experimental data from patent US20220356246A1 (published 2022).

Biological target: Human ROR1-ECD (human, UniProt Q01973 30-406)
Assay: BLI (Fortebio)

Human ROR1-ECD, sequence (Q01973 30-406): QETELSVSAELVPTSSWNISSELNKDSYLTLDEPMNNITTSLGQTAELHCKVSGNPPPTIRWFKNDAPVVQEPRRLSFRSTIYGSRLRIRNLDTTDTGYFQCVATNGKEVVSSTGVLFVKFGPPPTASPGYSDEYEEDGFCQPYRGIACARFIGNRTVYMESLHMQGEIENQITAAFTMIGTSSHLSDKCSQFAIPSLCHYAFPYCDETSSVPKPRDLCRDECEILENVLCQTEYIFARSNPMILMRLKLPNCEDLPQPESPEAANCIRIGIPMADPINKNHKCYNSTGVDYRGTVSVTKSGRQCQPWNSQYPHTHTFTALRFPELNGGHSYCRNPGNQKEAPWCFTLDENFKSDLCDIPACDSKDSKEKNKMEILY

Kd	Binder
4.48 nM	anti-ROR1 antibody clone G3 (antibody, V domains shown) VH: QVQLQQWGAGLLKPSETLSLTCAVYGGSFSGYYWSWIRQPPGKGLEWIGEINHSGSTSYNPSLKSRVTISVDTSKNQFSLKLSSVTAADTAVYYCARGHSSGWYRRYFDLWGRGTLVTVSS VL: EIVLTQSPATLSLSPGERATLSCRASQSVSSYLAWYQQKPGQAPRLLIYDASNRATGIPAKFSGSGSGTDFTLTISSLEPEDFAVYYCQQRSNWPPTFGGGTKVEIK
3.25 nM	anti-ROR1 antibody clone C3 (antibody, V domains shown) VH: QVQLQESGPGLVKPSETLSLTCTVSGGSISSYYWSWIRQLPGKGLEWIGYMHYSGSTSYNPSLKGRLTISVDTSTNQFSLKLGSVTAADTAVYYCARYYYHDSSGYYSYFDYWGQGTLVTVSS VL: EIVLTQSPGTLSLSPGERATLSCRASQSVSSYLAWYQQKAGQAPRLLIYDASNRASGIPARFSGSGSGTDFTLTISSLEPEDFAVYYCQQRSNWPPTFGGGTKVEIK
43.7 nM	anti-ROR1 antibody clone G6 (antibody, V domains shown) VH: EVQLVESGGGVVQPGGSLRLSCAASGFTFDDYAMHWVRQAPGKGLEWVSLISGDGGSTYYADSVKGRFTISRDNAKNSLYLQMNSLRAEDTAVYYCARDNWNDVYYYYGMDVWGQGTTVTVSS VL: DIQLTQSPSSLSASIGDTVTISCQASRDISDYLNWYQHKPGKAPKLLIYDASNLATGVPSRFSGSGSGTDFTLTIKSLQPEDVATYFCQQDDLLPLTFGGGTKVDIK
